Laboratory results reported in the nanobody polyreactivity screen of Harvey et al. (2022).

Assay: yeast display, Sf9 membrane polyspecificity reagent, FACS + sequencing; frameworks hold sequencing errors
Method in brief: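 Synthetic nanobody libraries on Saccharomyces cerevisiae BJ5465 were galactose-induced for 36–48 hours, stained 1 hour at 4 °C with 10% biotinylated, detergent-solubilized Sf9 membrane reagent and enriched on streptavidin microbeads. FACS then separated cells into low and high (top ~1%) gates by anti-HA (expression) and streptavidin (reagent binding) fluorescence. Genes were colony-PCR amplified, MiSeq 2 × 250 sequenced and CDR-length filtered. A clone's polyreactivity label is that of its gate of origin.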

Sequence | polyreactivity (PSR sort gate)
QVQLVESGGGLVQEGGSLRLSCAASGRNFDVYAMGWYRQAPGKERELVAAITWDGGSTYYADSVKGRFTISRDNAKNSVYLQMNSEKPEDKAVYYCAAEPVYTQRKGYDYWGQGTQVTVSS | low polyreactivity
QVQLVESGGGLVQEGGSLRLSCAASGRTFWYYGMGWYRQAHGKERELVAAISRSGGRTSYADSVKGRFTISRDNAKNTVYLQMIRLKPEDTAVYYCATDGYYRYGYWGQGTQVTVSS | high polyreactivity
QVQLVESGGGLVQEGGSLRLSCAASGRTICLNDMGWYRQAPGKERELVAGITRSGGSTYYADSVKGRFTISRDNAKNTVYLQMNSLKPEDSAVYYCAADFKPLYYDEYDYWGQGTQVTVSS | low polyreactivity
QVQLVESGGGLVQEGGSLRLSCAASGSIFFYYAMGWYRPAPGKERELVAAIRSGTSTNYADSVKGRFTISLDNAKNTVYLQMNSLKPEDTAVYYCNKDTDWSWSAITSPIFDYWGQGTQVTVSS | low polyreactivity
QVQLVESGGGLVQEGGSLRLSCAASGSIFGRNAMGWYRQAPGKERELVAAITSRTGSTFYADSVKGRFTISRDNAKNTDYLQMNSLKPEATAVYYCKAAGPAFSYYHWLWGDYNSWGQGTQVTVSS | low polyreactivity
QVQLVESGGGLVQEGGSLRLSCAASGSIFGWYAMGWYRQAPGKEWELVAAIRRGGSTNYADSVKGRFTISRDNAKNTVYLQMNSLKAEVTAVYYCAAGKSGYSKRIFRYSFDYWGQGTQVTVSS | high polyreactivity
QVQLVESGGGLVQEGGSLRLSCAASGSIFVNNGMGWYRQAPGKERELVAAIRLSTGSTYYADSVKGRFTISRDNAKNTVYLQMNSLKPEDTAVYFCNAVRYPRLMYYWGQGTQVTVSS | high polyreactivity
QVQLVESGGGLVQEGGSLRLSCAASGSSFCSYAMGRYRQAPGKERELVAAISSSGDSTYADSVKGRFTMSRDNAKNTVYLQMNSLKPEDTAVYYCAVGGAGSDDYWGQGTQVTVSS | low polyreactivity
QVQLVESGGGLVQEGGSLRLSCAASGSTFNAYAMGWYRQAPGKERELVATINDDGGTTYYADSVKGRFTISRDNAKNTVYLQMNSLKPEDTAVYYCAASGFDTSYETAPSDSWGYDYWGQGTQVTVSS | low polyreactivity
QVQLVESGGGLVQEGGSLRLSCAASGSTFRYYAMGWYRQAPGKERELVASISSSGGNTYGDAVKGRFTISRDNAKNTVYLQMNSLKPEDTAVYYCNADWALLYSPPYTYRYGYWGQGTQVTVSS | low polyreactivity
QVQLVESGGGLVQEGGSLRLSCAASGSTFSIYAMGWYRQAPGKERELVAGISGSGGSTYYADSVKGRFTISRDNAKNTVYLQMNSLKPEDTAVYYCAKRVLWGLDYCGQGTQVTVSS | low polyreactivity
QVQLVESGGGLVQEGGSLRLSCAASGYTFGRYFMGWYRQAPGKEREFVAAISRGGGSTYYADSVKGRFTISRDNAKNTVYLQMNSLKPEDTAVYYCDTRSSNAEYWGQGTQVTVSS | high polyreactivity
QVQLVESGGGLVQEGGSLRLSCASSGGIFDTNAKGWYRQARGKDREFVAAITGSGGSTYYADSVKGRFTISRDNAKNTVYLQMNSLIPEDTAVYYCAAPLSYYWVYIVRDGYDYWGQGTQVTVSS | low polyreactivity
QVQLVESGGGLVQEGGSLRLSCSASGSIFYVYAMGRYRPARGKDRELVAAISSIDGNTYYADSVKGRFTISRDNAKNTVYLQMNSLKPEETAVYYCAAAYYNTDYYYWGKGTQVTVSS | low polyreactivity
QVQLVESGGGLVQEGGSLRLTCAASGSTFIGNAMGGYRQAPGKERELVAAITSSGGSTYYADSVKGRFTISRDNAKNTVYLQMNSLKPEDTALYYCAAKTWARGHYGYQARSNYWGQGTQVTVSS | high polyreactivity
QVQLVESGGGLVQERGSLRLSCADSGFIFWYYAMGWDRQAPGKERELVAAISWSGDSTYYADSVKGRFTISRDNANNTVYLQMKSLKPEYTAVYYCAVYEELDVFYNGYDYWGQGTQVTVSS | high polyreactivity
QVQLVESGGGLVQGGGSLRLSCAASGGTIGRNAMGWYRQAPGKERELVANITRRGGSTYYADSVKGRFTISRDNAKNTVYLQMNSLKAEDTAVYYCAARDVYRGGLFDYWGQGTQVSVSS | high polyreactivity
QVQLVESGGGLVQGGGSLRLSCAASGITFCQYAMRWYRQAPGKERELVAGIRFSGSTTYYADSVKGRFTISRDYAKITVYLQMNSLKPEDTAVYDCNVDYYSGLYYYDSWGQGTQVTVSS | low polyreactivity
QVQLVESGGGLVQGGGSLRLSCAASGRIFKYYAMGWYRQAPGKERELVADISWRGGSTYYADSVKGRFTISRDNAKNTVYLQMNCLKPEDTAVYYCNAVSPRPGFDWGQGTQVTVSS | high polyreactivity
QVQLVESGGGLVQGGGSLRLSCAASGRIFTFYAMGWSRPAPGKARELVASITGGGNTYYADSVKGRFTISRDNAKNTVNLQMNSLKPEDTAVYYCAADDGYRELDYWGQGTQVTVSS | low polyreactivity
QVQLVESGGGLVQGGGSLRLSCAASGRIGKYAMGWYRQAPGKERELVATISSTGTTNYADSVKGRFTISRDNAKNTVYLQMNSLKPEDTAVYYCAARWEYVGYRRRYYRFDYWGQGTQVTVSS | high polyreactivity
QVQLVESGGGLVQGGGSLRLSCAASGRTLSYYAKGWYRQAPGKERELVADISWSGGSTYYADSVKGRFTISRDNAKNTVYLQMNSLKPEDTAVYYCAARVPGSIRSVGSVKQKYYYWGQGTQVTVSS | high polyreactivity

Sequence | polyreactivity (PSR sort gate)
QVQLVESGGGLVQPGGSLLLSCAASRITFDHYAMAWYRRAPGKERELVAAITSGGNTNYADSVKGRFTISRDNAKNPVYLQMNSLKPEDTAVYYCNAGYDVCYYYWGKGTQVTVSS | low polyreactivity
QVQLVESGGGLVQPGGSLRLLFAASGSNFVYNEMGWYRQAPGKERELVAGIDWSGDRTYADSVKRRFTNSRDNAKNTVYLQMNSLKQEDTAVKYCNADEWLWDEIIPFAVDYWGQGTQVTVSS | low polyreactivity
QVQLVESGGGLVQPGGSLRLSCAASGFIFPSYDMGWYIQAPGKERELVAAITSDVNSYYADSVKGRFTISRDNAKNTVYLQMTSLKPEDTAFYSCNADADDYRDYQDYDYWGQGTQVTVSS | low polyreactivity
QVQLVESGGGLVQPGGSLRLSCAASGFTFYPYVMGWYRQAPGKERELVAPINSGGARTYYADSEKGRFTISRDNAKNTVYYQIIRLKPEDTAVYYCAARTVVGGRIYYYWGQGTQVTVSS | low polyreactivity
QVQLVESGGGLVQPGGSLRLSCAASGITFIPNALGWYRQAPGKEREFVAGITWSGGRTYYADSVKGRFTISRDNATNTVYLQMNSLKPEDTAVYYCAAEPPTYKLLDFWGQGTQVTVSS | low polyreactivity
QVQLVESGGGLVQPGGSLRLSCAASGRTLQRNAMVWYRQAPGKERELVAAISSSGGSTYYADSVKGRFTISRDNAKNTFYLQMNSLKPDDTAVYYCNTDSVYRYHYWGQGTEVTVSS | high polyreactivity
QVQLVESGGGLVQPGGSLRLSCAASGSIFSYNTMGWYRQAPGKERELVAAISGRGGSTNYADSVKGRFTISRDNAKNTVYLQMNSLKPEDTAVYYCAKETWVPYRNGFFPLKGDYWGQGTQVTVSS | low polyreactivity
QVQLVESGGGLVQPGGSLRLSCAASGSIFYGYTMGWYRQEPGKERELVAAIRKSGGSTNYADSVKWRFTISRDIAKNTVYLQMNSLKPEDTAVYYCAAAYYRGRGYFWGQGTQVTVSS | high polyreactivity
QVQLVESGGGLVQPGGSLRLSCAASGSTFDWYAMAWYRQAPGKQRELVAAISSDDSTYYADSVKGRFTISRDNAKNTVYLQMNSLKPEETAVYYCAFDVYSDYGDYGFWGQGTQVTVSS | low polyreactivity
QVQLVESGGGLVQSGGSLRLSCAASGFIFKLNAMGWYRPAPGKERELVATITRGGDTKYADSVKGRFTISRDNAKNTVYLQMNSLKPEDTAVEYCAARYTPSSYIYRFYNFYGYDYWGQGTQVTVSS | high polyreactivity
QVQLVESGGGLVQSGGSLRLSCAASGFIFLSYAMGWYRQAPGKERELVAAISRRGGSTYYADSVKGRFTISRDNAKYTVYLQMNSLKPEDNAVYYCAADYGRITYNYWGQGTQVTVSS | high polyreactivity
QVQLVESGGGLVQSGGSLRLSCAASGITFARYTMGWYRQAPGKVRELVAAISYAGNTYYADSVKGRFTISRDNAKNTVYLQMNSLKPEDTAVYYCAREYTYYPRWVGYDAYGEDYWGQGTQVTVSS | low polyreactivity
QVQLVESGGGLVQSGGSLRLSCAASGITFDYYDMGWYRQAPGKERELVATITSDGSTTYADSVKGRFTISRDNAKNTVYLQMNSLKPEDTAVYYCDKRYWSYQYGYRMYYWGQGTQVTVSS | high polyreactivity
QVQLVESGGGLVQSGGSLRLSCAASGRIFARNAMGWYRQAPGKEREFVAAITFSGGSTYYADSVKGRFTISRDNAKNTVYLQMNSLKPEDTAVYYCAARSWRVLTREDYWGQGTQVTVSS | high polyreactivity
QVQLVESGGGLVQSGGSLRLSCAASGRIFHYNAMGWYRQAPGKERELVAVITTIGGDTYYADSVKGRFTISRDNAKNTVYLQMNSLKPEDTAVYYCARDRYDNPYDQDLDYWGQGTQVTVSS | low polyreactivity
QVQLVESGGGLVQSGGSLRLSCAASGRIFRYYAMGSYRQAPGKERELVSAITRGGSTNYADSVKGRFTISRDNAKNTVYLQMNSLKPEDTADYYCATRQSWYPRWMDYWGQGSQVTVSS | high polyreactivity
QVQLVESGGGLVQSGGSLRLSCAASGRIFVPNAMGWYRQAPGKERELVAAITGSGGSTYADSVKGRFTISRDNAKNTVYLQMNSLNPEDTAVYYCAKKTWYSYYWGQGTQVTVSS | high polyreactivity
QVQLVESGGGLVQSGGSLRLSCAASGRTFRYYAMGWYRQAPGKERELVAAISSSGDRTYYADSVKGRFTISRDNAKNTVYLQMNSLKPEDTAVYFCAADRGARGDYWGQGTQVTVSS | high polyreactivity
QVQLVESGGGLVQSGGSLRLSCAASGRTFYRYAMGWYRQAPGKERELVAAISYSTTRTYYADSVKGRFTISRDIAKNTVYLQMNSLKPEETAVYYCAAYGWSRFGYDYWGQGSQVTVSS | high polyreactivity
QVQLVESGGGLVQSGGSLRLSCAASGSIFDYYAMGWYRQAPGKERELVASINSSGTGTYYADSVKGRFTFSRDNAKNTVSLQVNSMKPEDTAVYYCATRQAVGYSSGRGYGYWGQGTQETVSS | low polyreactivity
QVQLVESGGGLVQSGGSLRLSCAASGSIFGYYAMGWYRRAPGKERELVAAISVSGGSTYYADSVKGRFTISRDNAKNTVYLLMNSLKPEDTAVYYCNKVQGSWRVPYYYWGQGTQVTVSS | high polyreactivity
